Substrate in data set [1]: O=P(O)(O)OC[C@H]1O[C@H](OP(=O)(O)OP(=O)(O)O)[C@H](O)[C@@H]1O
Kind of data set: purified protein, by the assay type. Conditions: other: 0.03 M phosphate buffer, 0.012 M MgCl2, 1 mM DTT, pH 7.4, 25 °C, bases at 500 μM PRib-PP, PRib-PP at 40 μM guanine.

Substrate in data set [2]: O=c1[nH]cnc2nc[nH]c12
Kind of data set: purified protein, by the assay type. Conditions: other: 0.03 M phosphate buffer, 0.012 M MgCl2, 1 mM DTT, pH 7.4, 25 °C, bases at 500 μM PRib-PP, PRib-PP at 40 μM guanine.

This passage reports Km, kcat and kcat/Km results from PMC5081515, “Crystal structures and inhibition of Trypanosoma brucei hypoxanthine–guanine phosphoribosyltransferase” (Scientific Reports, 2016).

B1: TbrHGPRT (Trypanosoma brucei brucei) (protein)
chain: MEPACKYDFATSVLFTEAELHTRMRGVAQRIADDYSNCNLKPLENPLVIVSVLKGSFVFTADMVRILGDFGVPTRVEFLRASSYGHDTKSCGRVDVKADGLCDIRGKHVLVLEDILDTALTLREVVDSLKKSEPASIKTLVAIDKPGGRKIPFTAEYVVADVPNVFVVGYGLDYDQSYREVRDVVILKPSVYETWGKELERRKAAGEAKR
Consider B1, for which, in data set [1], the Km (as a rule, the substrate concentration at which the rate is half of its maximum) worked out at 103 ± 16 µM. In addition, in data set [2], the Km was 5.5 ± 0.3 µM; the kcat – broadly, the maximal rate divided by the concentration of active sites – was 17.1 s⁻¹; the kcat/Km (usually the second-order rate constant that governs catalysis at low substrate concentration) was 3.1e+06 M⁻¹ s⁻¹.
